Reference: patent US5885821

What was measured:
[1] = biological target: chimeric protein βGal-139S(FM)PPH84 (E. coli; human)
[2] = biological target: chimeric protein βGal-117S4HPPH34 (E. coli; human)

- recovery rate of hPTH(1-84) excised from the chimeric protein (HPLC) [1]: 75%
- excision efficiency of hPTH(1-34) from the chimeric protein [2]: > 90%
Substance: Kex2-660 (enzyme)
